Test: soluble on expression in E. coli; label from the status in PepcDB or PDB records
For “MSLVTLRSLAQQLKVHVSTVSRVLNGTDDDARNAAAPETVERIRELAQQLNYRPNPHAIGLRTQKTRTVSVLVPQLSDLVVATIYEGIDAAAADSRYLTFVANTGDAPPRQRQLGEMALDRRVEGLIFADARRDDTRFLDEIARRGVPMVLVSRHLGTHCAVTCDDVAGGRMAAEHLLALGHRDIAVLAGEQYASTGCDRSAGFIAYCREQGVDIPAKWILHGPFDTRAGRLAGEKLFRSARKPSAVFAVNDFLAIGLMGAVRDRGLRAGHDVAIVGFNDTPLAAELPISLTTIRSPMHAMGYRSMELLLERIKGGRPASERLAPQLMVRASTCPREGIITITTDPNSSSVDKLAAALEHHHHHH”, the “soluble on expression in E. coli” value was “soluble”. In the case of “MGSDKIHHHHHHMDKKTYKLLRTLTHLSKDLYNLTLYTVKQHYELNGTFLPFVKAYHMVKDSEPYKLLPSQVAQQTMKIVERNFRSFFHVLKERKKGNYNRPVRPPKYLPKNGHFILIFPYQSFRVKEDRIILTLGKNFAEKYGVKHLEIPLPKNVKGHRIKEIRILPRYNALWFEVEYVYEVLPEERDLDRSKYLAIDLGLDNFATCVSTTGTAFIIEGRGLKSFNRWWNKEKAKLQSQYDKQGVKFGKRMVWLLKKRKNVVNDFMNKAVSYIVNYCLENGIGNVVIGELKGVKQNTDLGRRNNQNFHYIPYGLFKQKLKAKCERYGINYIEVDEAYTSKVDALTLEPIEKREKYLGKRGETWTVPVFRWCFNKC”, the “soluble on expression in E. coli” value is reported as “not soluble”. With “MSLQNFQTEEISALIQNYDFDKALYKLKSHYSDMTFKEADSLLLANNIVYSENNETQQQQYLANLDTLLRDINNNHSEIASFTIYKNDMILVNTHNLYNHGFYKINSSLENIYFNLSEITDNDDQFAKYFKLLNLFFSTISRDAILSTSDKFNDIAIRKHEHSTNISTAFSQIFNECLKSKFEKNNVKTLFAELATYDIIEILNELIENHLKDTSYHLDNFVEAFTGNVMNSSIIIENLYHQIVVQNKLLQLVLLSFLFLDFDTNIFGDKIETLLDINYKQTFFMSFYEFDSKLTQSSMSMHTLQYPHGVQIFSSSELAGYLEFEIATLYSTPIVDSRLYIAFMQEYVLNWREKMEPPQKAINFFKYILEPLYRRNEIDEEFLLAMSMFNCGRFEQAYEFFTMNDYMLHLANKLPPFLKNVQQNSLWYELLKTFTESSTNAHYYLQLSLLFKTYNRLDLALKCVSKSVEYSMKHPSVEEGHHHHHH” the “soluble on expression in E. coli” value was “soluble”. In the case of “MGSDKIHHHHHHMLDHLCVNMLSSCPRCASSSGNRASRRYPMRINADFTRRAAVHFDQTDWVPSPAPGVERKMLDRIGAEVARATTIVRFAPGSAFSAHTHDGGEEYLVLDGVFQDELGDFPVGSYVRNPPTSSHTPATEPGATILVKLHQFDPADRTEVRRSINGKSDETLFSDSHEEVRLESWAAGAQVTRDLPGGIEVFVLEGGFQEGGETFSRWDWLRLPPGARLDLTAGAEGARVWVKSGHLAAMV”, the “soluble on expression in E. coli” value is reported as “not soluble”. With “MKNVTRILTLSNGYHLWSHTSNLGGRTKLLCLHGGPGDTHEVFERFGPELADLDIEVTMYDQLGSWYSDTPNWDDDAIRQQYLTEDYYLSEVDEVRQQLGYKHCYLAGHSWGGMLAMTYAADHQDQLDGLIIISMIDNIADYLKRMHAIRTAEFSPAENAFMLAIEKRQQWNNPHYRQLITHLYHQYINRCHPSMMQHQLDIQAKPVYNHFQGDNEFVVYGVLDDWDFSDTLATIQVPTLLMFADHETMPLATAERMQQRMPNAKLVVTPDSGHNHMVDNPAVFFTYLRNYFSDQLGR” the “soluble on expression in E. coli” value was “not soluble”. For “GDKAYTDAESYTKGLHKIYSVWALSGQDGSSSSDISGLDAGNTALLRCWWTLQEQPTDEMKNAWNDAWCTEVNYMTWTTNKVEPIEGVYQRCMYIVALVNEFLKNIPNAPESIDKESYIAQARFNRAFAYYVLMDMFALPPFITEKNYSIEPAPLSREDLFNWIEAELNEIKPNLPSPRSEYGVADQAVASALLARMYLNAEIYTGKARYTECINACNEVIKAGYQLADNYADLFKADNGENPDTKKEIIYPIIFDGDKTQSWGMAAIIIGARGAEDKDVLLAHSGVDQGWAGFRATSNLVHLFDFQNDEEPKASEIQDKRGIFYDKGRSIDITSSVSGTFETEGWSVFKFSNLNSNGQPGKNTLWVDTDFPMFRLGDIYLMYAEAVARGGEGSKASAVEYINALRKRAYGDDKHNISENWLEENNFRNLLDERGRELYWEGIRRTDLVRFDLLTSGSYTWDFKGGINTGVGVNKRYNVYPIPVTDLTVNGNLQQNEGY”, the “soluble on expression in E. coli” value was “soluble”. For “NPDGLSQEQLEHRERSLQTLRDIQRMLFPDEKEFTGAQSGGPQQNP”, the “soluble on expression in E. coli” value was “soluble”. With “MSSSQVVRDSAKKLVNLLEKYPKDRIHHLVSFRDVQIARFRRVAGLPNVDDKGKSIKEKKPSLDEIKSIINRTSGPLGLNKEMLTKIQNKMVDEKFTEESINEQIRALSTIMNNKFRNYYDIGDKLYKPAGNPQYYQRLINAVDGKKKESLFTAMRTVLFGK” the “soluble on expression in E. coli” value was “not soluble”. For “SANAEVSVPVGDVVVVPTEGNEGENPEDTKTQVILQLQPVQQGIYEAGSENNTAVVAVETHTIHKIEEGIDTGTIEANEDMEIAYPITCGESKAILLWKKFVCPGINVKCVKFNDQLISPKHFVHLAGKSTLKDWKRAIRLGGIMLRKMMDSGQIDFYQHDKVCSNTCRSTKFDLLISSARAPVPGQQTSVVQTPTSADGSITQIAISEESMEEAGLEWNSALTAAVTMATEEGVKKDSEEISEDTLMFWKGIADVGLMEEVVCNIQKEIEELLRGVQQRLIQAPFQVTDAAVLNNVAHTFGLMDTVKKVLDNRRNQVEQGEEQFLYTLTDLERQLEEQKKQGQDHRLKSQTVQNVVLMPVSTPKPPKRPRLQRPASTTVLSPSPPVQQPQFTVISPITITPVGQSFSMGNIPVATLSQGSSPVTVHTLPSGPQLFRYATVVSSAKSSSPDTVTIHPSSSLALLSSTAMQDGSTLGNMTTMVSPVELVAMESGLTSAIQAVESTSEDGQTIIEIDPAPDPEAEDTEGKAVILETELRTEEKVVAEMEEHQHQVHNVEIVVLED”, the “soluble on expression in E. coli” value was “soluble”. For “MSSFLFENAAILDGQARELRENQHVLVEANRIIEVSDKPIKSKNSERINVNGMTLMPGLIDAHVHVKATIVNVGRLSDIPVSYLTADAGKFMRQMLMRGFTTVRDAGGADRGLADAVTDGLLIGPRLFVSGLSLSQTGGHGDMRPVTSDSHPITCACLASTQQLGRIADGVDECRRAARDELRKGAHQIKIMAGGGVASPNDPIQNTQYSVEEIRAICEEAAAAHTYVMAHAYVPAAISRAIENGVRTIEHGNLLDAEAAKVMSKHNAFLVPTNVTYRALYKHGKSFGFPEVSIGKLKDVLDVGLSAIEIAKNNGVKIGHGSDLLGECQVYQSDELSIKAEVVGNYEAIRHATEVNAEILNMTGELGVIKENALADILIVDGNPIKDVGFLSNDAKFIPNNNER”, the “soluble on expression in E. coli” value was “soluble”. For “PGYLNDIPRHGMFVKDLILLVNDTAAVAYDPMENECYLTALAEQIPRNHSSIVTQQNQVYVVGGLYVDEENKDQPLQSYFFQLDNVSSEWVGLPPLPSARCLFGLGEVDDKIYVVAGKDLQTEASLDSVLCYDPVAAKWSEVKNLPIKVYGHNVISHNGMIYCLGGKTDDKKCTNRVFIYNPKKGDWKDLAPMKTPRSMFGVAIHKGKIVIAGGVTEDGLSASVEAFDLKTNKWEVMTEFPQERSSISLVSLAGSLYAIGGFAMIQLESKEFAPTEVNDIWKYEDDKKEWAGMLKEIRYASGASCLATRLNLFKLSKL”, the “soluble on expression in E. coli” value was “soluble”. In the case of “MRIWIDADACPKAAKELVCKFALKRKLEVWMVAGQPQVKPPFACVRLVVVESGMDAADDYLVEQAEPGDLAICSDVPLADRLIKKQVAALDPRGREFDARNMGDKLAMRNLMADLRDQGQMGGGQAPYGERDRQAFANALDRLLTRLQREADLRASQPHR”, the “soluble on expression in E. coli” value is reported as “not soluble”. For “METIIHKIRLFDVAQADAFEFWVQNVDYATCPDLPSVVRFDVHRASLQANAPYHYVEVIKITDRAAFDADMETSTFAGLVQAFSRMAEVVEELAGEQLGSGYAAG”, the “soluble on expression in E. coli” value was “soluble”. With “MRWNICVVGAGKIGQMIAALLKTSSNYSVTVADHDLAALAVLNRMGVATKQVDAKDEAGLAKALGGFDAVISAAPFFLTPIIAKAAKAAGAHYFDLTEDVAATNAVRALAEDSQT” the “soluble on expression in E. coli” value was “soluble”. With “MKALALFSGGLDSLLSMKLIQEMGIEVVALHFNIGFGANRDKLEYLQNATAQIGVELRVLDIQEQFFNEVLFNPVHGYGKYFNPCIDCHANMFRHALRLLEGEGASFIISGEVIGQRPKSQRREALHQVENLTQTKGLILRPLSAKLLPPTLAEERGWVDREKLLDIHGRGRDRQLAMAKSYGWVYFE” the “soluble on expression in E. coli” value was “not soluble”. For “MKQSLFGRVRDAILADFHNVLDEKERKNPIAMLNQYLRDSEREITKIEKLIERHKTLKSNFARELEQARYFVNKRSKQAIIAQEADELQLHERALEEVAYYEGQVTRLEEMYAGVVEQIDELERRLSEMKNKLKEMHAKRMELMARENMAHANRRMNTAMHKMDENNPFLRFEEIEDHIRDLETRMNEEHERDTFDMKIAKLEREMKEKNDVSLTKELTKLEHHHHHH”, the “soluble on expression in E. coli” value was “soluble”. For “MFKRLFMVALLAIAPLVHAVDQSNPYRLMDEAAKKTFTRLKNEQPKIKQNPDYLRTIVREELLPFVQIKYAGALVLGSYYKDATPAQREAYFNAFGKYLEQAYGQALALYHGQTYDVAPDQPLGDANIVAIRVTILDPSGRPPVRLDFQWRKNSQTGNWQAYDMIAEGVSMISTKQNEWASILRQKGVDGLTQQLLSAAKQPITLDK”, the “soluble on expression in E. coli” value was “not soluble”. With “SSRHVFLTGPPGVGKTTLIQKAIEVLQSSGLPVDGFYTQEVRQEGKRIGFDVVTLSGAQGPLSRVGSQPLPGKPECRVGQYVVNLDSFEQLALPVLRNAGSSCGPKHRVCIIDEIGKMELFSQPFIQAVRQMLSTPGIIVVGTIPVPKGKPLALVEEIRKRRDVKVFNVTRDNRNSLLPDIVAVVQSSRT” the “soluble on expression in E. coli” value was “soluble”. For “MGIFRIQAYFFALIIALFFVACDSGENFKALNSDKTYNFAYNGFEKSLKLNDKAQNFALVFFTKDCGVCKEQIPILQNLAKNYDFNIFVVLGDANDANDAKAWADEKGLSNLAMFYEKRAAKYLSSAIGEIYGVPVLSFFKEGKMDEKFIGLTPYSILEKEIKKVKS”, the “soluble on expression in E. coli” value was “not soluble”. In the case of “MDGNDLIRLEMKRLGPMAVEKGDLLLLSGDNNADASMWDPNSNGPKSYQSQVAGLRLAAGGVFHVLTLKSAGEATLSIHFVFPSRTDPGRQVQMWVRRVGRSFQGAGSGYVLMNMRHVVNVQGKTIHTQTGNTVCLDDITDDCYLDREGRFVFVKSPVGSPPSMIAVGYTNSDGTQDLAELILTESACPEMLHVFSTLEFPD”, the “soluble on expression in E. coli” value is reported as “soluble”. For “MGSGGVVHCRCAKCFCYPTKRRIRRRPRNLTILSLPEDVLFHILKWLSVEDILAVRAVHSQLKDLVDNHASVWACASFQELWPSPGNLKLFERAAEKGNFEAAVKLGIAYLYNEGLSVSDEARAEVNGLKASRFFSLAERLNVGAAPFIWLFIRPPWSVSGSCCKAVVHESLRAECQLQRTHKASILHCLGRVLSLFEDEEKQQQAHDLFEEAAHQGCLTSSYLLWESDRRTDVSDPGRCLHSFRKLRDYAAKGCWEAQLSLAKACANANQLGLEVRASSEIVCQLFQASQAVSKQQVFSVQKGLNDTMRYILIDWLVEVATMKDFTSLCLHLTVECVDRYLRRRLVPRYRLQLLGIACMVICTRFISKEILTIREAVWLTDNTYKYEDLVRMMGEIVSALEGKIRVPTVVDYKEVLLTLVPVELRTQHLCSFLCELSLLHTSLSAYAPARLAAAALLLARLTHGQTQPWTTQLWDLTGFSYEDLIPCVLSLHKKCFHDDAPKDYRQVSLTAVKQRFEDKRYGEISQEEVLSYSQLCAALGVTQDSPDPPTFLSTGEIHAFLSSPSGRRTKRKRENSLQEDRGSFVTTPTAELSSQEETLLGSFLDWSLDCCSGYEGDQESEGEKEGDVTAPSGILDVTVVYLNPEQHCCQESSDEEACPEDKGPQDPQALALDTQIPATPGPKPLVRTSREPGKDVTTSGYSSVSTASPTSSVDGGLGALPQPTSVLSLDSDSHTQPCHHQARKSCLQCRPPSPPESSVPQQQVKRINLCIHSEEEDMNLGLVRL”, the “soluble on expression in E. coli” value was “soluble”.
